Source: patent US20190194660, “INHIBITORS OF SRSF1 TO TREAT NEURODEGENERATIVE DISORDERS” (University of Sheffield, published 2019)

T1: SRSF1-m4 (11-196 quadruple Arg to Ala mutant) (Homo sapiens, UniProt Q07955 SEQ:2-187)
T1 chain: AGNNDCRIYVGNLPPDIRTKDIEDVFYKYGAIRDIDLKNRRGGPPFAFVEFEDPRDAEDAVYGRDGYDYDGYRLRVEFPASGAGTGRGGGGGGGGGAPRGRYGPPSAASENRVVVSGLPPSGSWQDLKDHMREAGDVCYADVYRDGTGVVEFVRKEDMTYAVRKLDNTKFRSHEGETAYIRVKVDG


Tests used:
[1] = biological target: SRSF1 (11-196) (Homo sapiens, UniProt Q07955 SEQ:11-196); test: UV crosslinking; no signal without UV; details: tags: hexa-histidine, E. coli BL21(DE3)-RP; label: 5'-32P
Description: (§1) (A,B) Protein:RNA UV crosslinking assays using purified recombinant proteins and 32P-end-radiolabeled G4C2×5 (A) and C4G2×5 (B) repeat RNA probes. Proteins are visualised on SDS-PAGE stained with Coomassie blue (left panels) and covalently linked RNA:protein complexes by autoradiography on Phospholmages (Right panels). UV exposure is indicated by +. […] Nuclei are stained in blue by DAPI. Scale bar: 3 μm;
(§2) We performed in vitro UV-crosslinking assays using purified recombinant proteins and synthetic G4C2×5 and C4G2×5 RNA probes to investigate direct protein:RNA interactions. […] Purified proteins were incubated with 5′-end 32P-radiolabelled G4C2×5 (FIG. 20a) or C4G2×5 (FIG. 20b) RNA probes prior to irradiation with UV where indicated (+) and resolved by SDS-PAGE.

[2] = biological target: MAGOH (UniProt P61326 P61326:1-146); test: UV crosslinking; negative control protein; details: tags: hexa-histidine, E. coli BL21(DE3)-RP; label: 5'-32P
Chain of MAGOH (P61326 whole entry, one chain of several): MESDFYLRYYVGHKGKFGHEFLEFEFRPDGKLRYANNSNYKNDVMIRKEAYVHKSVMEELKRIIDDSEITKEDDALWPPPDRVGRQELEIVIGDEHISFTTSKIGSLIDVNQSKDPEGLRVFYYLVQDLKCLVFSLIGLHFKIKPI
Description: as §1, §2

[3] = biological target: ALYREF (Homo sapiens, UniProt Q86V81 Q86V81:1-257); test: UV crosslinking
[4] = biological target: T1, SRSF1-m4 (11-196 quadruple Arg to Ala …); test: UV crosslinking; details: tags: hexa-histidine, E. coli BL21(DE3)-RP; label: 5'-32P
Description: (§3) Histone H3 is used to check for potential nuclear contamination. (g) Cytoplasmic and total G4C2-repeat sense transcript levels were normalized to Tub84b levels in G4C2×36+Ctrl-RNAi or G4C2×36+SRSF1⁷⁶-RNAi Drosophila in triplicate experiments prior to plotting as a ratio to account for potential changes in mRNA transcription/stability (mean±SEM; paired t-test; N (qRT-PCR reactions)=3).
(§4) N2A cells were transfected with FLAG control, FLAG-tagged SRSF1 or FLAG-tagged SRSF1-m4 and various lengths of sense or antisense repeat transcript constructs prior to fixing of ribonucleoprotein complexes. Cell extracts were then subjected to anti-FLAG immunoprecipitation under the same conditions used in the co-immunoprecipitation of NXF1 (FIG. 6g) prior to the qRT-PCR analysis of SRSF1-crosslinked RNA molecules.

[5] = biological target: T1, SRSF1-m4 (11-196 quadruple Arg to Ala …); test: UV crosslinking; mutant position printed R93,94,117,118A in text, R90,93,117,118A in FIG. 13; details: tags: hexa-histidine, E. coli BL21(DE3)-RP; label: 5'-32P
Description: as §3, §4

| Binder | binding result [1] | binding result [2] | binding result [3] | binding result [4] | binding result [5] |
| --- | --- | --- | --- | --- | --- |
| CCCCGGCCCCGGCCCCGGCCCCGGCCCCGG (ssRNA) [C4G2x5 RNA] | binds | no binding | binds | binds |  |
| GGGGCCGGGGCCGGGGCCGGGGCCGGGGCC (ssRNA) [G4C2x5 RNA] | binds | no binding | binds |  | binds |
